Source: article PMC12781765, “Atypical GNAO1 variants in severe childhood speech disorders: clinical, genetic, and molecular insights” (Molecular Autism, 2025)

Target: T1, GFP-RGS19 (UniProt P49795 1-217)
T1 construct: RGS19, regulator of G protein signaling 19; Plasmid published earlier; also called GFP-tagged RGS19 construct; source: HEK293T, transfected, in lysate
T1 sequence (looked up): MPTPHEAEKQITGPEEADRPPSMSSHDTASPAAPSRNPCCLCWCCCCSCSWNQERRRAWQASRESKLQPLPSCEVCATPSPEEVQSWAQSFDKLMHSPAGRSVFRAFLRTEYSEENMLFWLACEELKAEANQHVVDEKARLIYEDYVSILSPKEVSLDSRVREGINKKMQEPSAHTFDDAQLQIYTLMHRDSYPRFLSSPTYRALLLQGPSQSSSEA
Experiment: co-IP; HEK293T co-transfected with the GFP-tagged construct and non-tagged Gαo variants; IP of the GFP fusion with a recombinant GST-tagged nanobody against GFP; Western blot with antibodies against Gαo and GFP; blots quantified with ImageJ
Settings: partners not purified

B1: Gαo L39_G40insV (non-tagged) (natural protein, human, UniProt P09471-1 1-354, looked up)
chain: MGCTLSAEERAALERSKAIEKNLKEDGISAAKDVKLLLLVGAGESGKSTIVKQMKIIHEDGFSGEDVKQYKPVVYSNTIQSLAAIVRAMDTLGIEYGDKERKADAKMVCDVVSRMEDTEPFSAELLSAMMRLWGDSGIQECFNRSREYQLNDSAKYYLDSLDRIGAADYQPTEQDILRTRVKTTGIVETHFTFKNLHFRLFDVGGQRSERKKWIHCFEDVTAIIFCVALSGYDQVLHEDETTNRMHESLMLFDSICNNKFFIDTSIILFLNKKDLFGEKIKKSPLTICFPEYTGPNTYEDAAAYIQAQFESKNRSPNKEIYCHMTCATDTNNIQVVFDAVTDIIIANNLRGCGLY
notes: Gαo (GNAO1) with the patient variant p.Leu39_Gly40insVal (c.116_118dup), introduced by site-directed mutagenesis into the non-tagged Gαo plasmid; De novo patient variant; also called p.Leu39_Gly40insVal; source: HEK293T, transfected (in lysate for co-IP; in cells for BRET)
- percent of the binding of wild-type: < 15%
